# B1: PPO12A: nucleotide sequence encoding microbial protoporphyrinogen oxidase PPO12 (SEQ ID NO:12), Arabidopsis thaliana/soybean common codon usage bias (nucleic acid)
# DNA: ATGAAGAAAGCTCTTTTCCTGTACAGCTCGAGAGAAGGCCAGACAAAAAAGATTCTCAACTACATAGAAGGAGAGTTATCAAATTTTGAATGTGAATTGGTTGACCTTCACACGCTTGATGCTATTGATTTCTCCGTCTATGATCGGGTGCTCATTGGTGCTTCTATACGATATGGTCATTTGAACAAGAAGCTTTATCAGTTTATAGAGAACAACAGACAACAACTAGAGAATCATACCAAAGTTGCCTTCTTCTGCGTCAATCTTACTGCAAGGAAAGAAGATCAAGGAAAAGACACTCCTGAGGGGAGTGTTTACATCCAGAAATTTCTCAAGAAATCACCATGGCAACCGAAGTTGATTGGAGTTTTCGCGGGGGCATTATACTACCCTCGTTATGGATTCTTTGATAAGATGATGATCAAACTCATCATGACTTTAACTGATGGTGAAACCGACACAACAAAGGAAGTGGAGTATACAAATTGGAAAAAAGTATCTTTGTTTGCAAAGAAGTTTGCTGAGCTGTGA
# modifications: The nucleotide sequence of PPO12A
# Tests used:
# Format in all cases: in vivo
# [1] = test system: Arabidopsis thaliana T1 plants; assay: oxyfluorfen tolerance of transgenic Arabidopsis thaliana T1 plants (spray, grade of pesticide damage); conditions: 7 DAT, number of plants of 24 per genotype, grades
# Summary of the method: (§1)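 Herbicide rates in g ai/ha are as follows: oxyfluorfen 180 or 720, saflufenacil 25 or 100, flumioxazin 60 or 240, sulfentrazone 450 or 900, each against a water control. Sprays go onto PPO-transgenic T1 plants at 18 days. At 7 DAT, leaf-area injury is graded 0–3, with grades 0–1 counted as highly resistant.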
# [2] = test system: Arabidopsis thaliana T1 plants; assay: saflufenacil tolerance of transgenic Arabidopsis thaliana T1 plants (spray, grade of pesticide damage); conditions: 7 DAT, number of plants of 24 per genotype, grades
# Summary of the method: as §1
# [3] = test system: Arabidopsis thaliana T1 plants; assay: flumioxazin tolerance of transgenic Arabidopsis thaliana T1 plants (spray, grade of pesticide damage); conditions: 7 DAT, number of plants of 24 per genotype, grades
# Summary of the method: as §1
# [4] = test system: Arabidopsis thaliana T1 plants; assay: sulfentrazone tolerance of transgenic Arabidopsis thaliana T1 plants (spray, grade of pesticide damage); conditions: 7 DAT, number of plants of 24 per genotype, grades
# Summary of the method: as §1
# [5] = test system: transgenic soybean plants; assay: saflufenacil tolerance of transgenic soybean plants (spray, grade of pesticide damage); parameters: key to damage levels rated at grade: grade 0 means that the growth status of plants is essentially consistent with those sprayed with the blank solvent (water); grade 1 means that the average of the damage levels of plants is less than 10%; grade 2 means that the average of the damage levels of plants is greater than 100%; grade 3 means that the average of the damage levels of plants is 100%; conditions: for The grade of pesticide damage/plant: grade 0 / The grade of pesticide damage/plant: grade 1 / The grade of pesticide damage/plant: grade 2 / The grade of pesticide damage/plant: grade 3: 7 DAT, number of plants of 16 per genotype, grades
# [6] = test system: transgenic soybean plants; assay: oxyfluorfen tolerance of transgenic soybean plants (spray, grade of pesticide damage); conditions: for The grade of pesticide damage/plant: grade 0 / The grade of pesticide damage/plant: grade 1 / The grade of pesticide damage/plant: grade 2 / The grade of pesticide damage/plant: grade 3: 7 DAT, number of plants of 16 per genotype, grades; for tolerance to oxyfluorfen: soybean
# [7] = test system: transgenic soybean plants; assay: flumioxazin tolerance of transgenic soybean plants (spray, grade of pesticide damage); conditions: for The grade of pesticide damage/plant: grade 0 / The grade of pesticide damage/plant: grade 1 / The grade of pesticide damage/plant: grade 2 / The grade of pesticide damage/plant: grade 3: 7 DAT, number of plants of 16 per genotype, grades
molecule,measurement,setting,value
B1,The grade of pesticide damage/plant: grade 0,[1]; oxyfluorfen 180 g ai/ha (1×),24 plant
same,The grade of pesticide damage/plant: grade 1,[1]; oxyfluorfen 180 g ai/ha (1×),0 plant
same,The grade of pesticide damage/plant: grade 2,[1]; oxyfluorfen 180 g ai/ha (1×),0 plant
same,The grade of pesticide damage/plant: grade 3,[1]; oxyfluorfen 180 g ai/ha (1×),0 plant
same,The grade of pesticide damage/plant: grade 0,[1]; oxyfluorfen 720 g ai/ha (4×),20 plant
same,The grade of pesticide damage/plant: grade 1,[1]; oxyfluorfen 720 g ai/ha (4×),4 plant
same,The grade of pesticide damage/plant: grade 2,[1]; oxyfluorfen 720 g ai/ha (4×),0 plant
same,The grade of pesticide damage/plant: grade 3,[1]; oxyfluorfen 720 g ai/ha (4×),0 plant
same,The grade of pesticide damage/plant: grade 0,[2]; saflufenacil 25 g ai/ha (1×),24 plant
same,The grade of pesticide damage/plant: grade 1,[2]; saflufenacil 25 g ai/ha (1×),0 plant
same,The grade of pesticide damage/plant: grade 2,[2]; saflufenacil 25 g ai/ha (1×),0 plant
same,The grade of pesticide damage/plant: grade 3,[2]; saflufenacil 25 g ai/ha (1×),0 plant
same,The grade of pesticide damage/plant: grade 0,[2]; saflufenacil 100 g ai/ha (4×),0 plant
same,The grade of pesticide damage/plant: grade 1,[2]; saflufenacil 100 g ai/ha (4×),24 plant
same,The grade of pesticide damage/plant: grade 2,[2]; saflufenacil 100 g ai/ha (4×),0 plant
same,The grade of pesticide damage/plant: grade 3,[2]; saflufenacil 100 g ai/ha (4×),0 plant
same,The grade of pesticide damage/plant: grade 0,[3]; flumioxazin 60 g ai/ha (1×),24 plant
same,The grade of pesticide damage/plant: grade 1,[3]; flumioxazin 60 g ai/ha (1×),0 plant
same,The grade of pesticide damage/plant: grade 2,[3]; flumioxazin 60 g ai/ha (1×),0 plant
same,The grade of pesticide damage/plant: grade 3,[3]; flumioxazin 60 g ai/ha (1×),0 plant
same,The grade of pesticide damage/plant: grade 0,[3]; flumioxazin 240 g ai/ha (4×),24 plant
same,The grade of pesticide damage/plant: grade 1,[3]; flumioxazin 240 g ai/ha (4×),0 plant
same,The grade of pesticide damage/plant: grade 2,[3]; flumioxazin 240 g ai/ha (4×),0 plant
same,The grade of pesticide damage/plant: grade 3,[3]; flumioxazin 240 g ai/ha (4×),0 plant
same,The grade of pesticide: grade 0,[4]; sulfentrazone 450 g ai/ha (1×),24
same,The grade of pesticide: grade 1,[4]; sulfentrazone 450 g ai/ha (1×),0
same,The grade of pesticide: grade 2,[4]; sulfentrazone 450 g ai/ha (1×),0
same,The grade of pesticide: grade 3,[4]; sulfentrazone 450 g ai/ha (1×),0
same,The grade of pesticide: grade 0,[4]; sulfentrazone 900 g ai/ha (2×),23
same,The grade of pesticide: grade 1,[4]; sulfentrazone 900 g ai/ha (2×),1
same,The grade of pesticide: grade 2,[4]; sulfentrazone 900 g ai/ha (2×),0
same,The grade of pesticide: grade 3,[4]; sulfentrazone 900 g ai/ha (2×),0
same,The grade of pesticide damage/plant: grade 0,[5]; saflufenacil 50 g ai/ha (2×),16 plant
same,The grade of pesticide damage/plant: grade 1,[5]; saflufenacil 50 g ai/ha (2×),0 plant
same,The grade of pesticide damage/plant: grade 2,[5]; saflufenacil 50 g ai/ha (2×),0 plant
same,The grade of pesticide damage/plant: grade 3,[5]; saflufenacil 50 g ai/ha (2×),0 plant
same,The grade of pesticide damage/plant: grade 0,[5]; saflufenacil 100 g ai/ha (4×),16 plant
same,The grade of pesticide damage/plant: grade 1,[5]; saflufenacil 100 g ai/ha (4×),0 plant
same,The grade of pesticide damage/plant: grade 2,[5]; saflufenacil 100 g ai/ha (4×),0 plant
same,The grade of pesticide damage/plant: grade 3,[5]; saflufenacil 100 g ai/ha (4×),0 plant
same,tolerance to saflufenacil,"[5]; soybean, saflufenacil at four-fold field concentration (100 g ai/ha)",high-resistant tolerance
same,damage levels rated at grade,"[5]; soybean, saflufenacil at two-fold field concentration (50 g ai/ha)",0
same,tolerance to saflufenacil,"[5]; soybean, saflufenacil, compared with the control vector and CK",different extents of tolerance
same,The grade of pesticide damage/plant: grade 0,[6]; oxyfluorfen 360 g ai/ha (2×),16 plant
same,The grade of pesticide damage/plant: grade 1,[6]; oxyfluorfen 360 g ai/ha (2×),0 plant
same,The grade of pesticide damage/plant: grade 2,[6]; oxyfluorfen 360 g ai/ha (2×),0 plant
same,The grade of pesticide damage/plant: grade 3,[6]; oxyfluorfen 360 g ai/ha (2×),0 plant
same,The grade of pesticide damage/plant: grade 0,[6]; oxyfluorfen 720 g ai/ha (4×),16 plant
same,The grade of pesticide damage/plant: grade 1,[6]; oxyfluorfen 720 g ai/ha (4×),0 plant
same,The grade of pesticide damage/plant: grade 2,[6]; oxyfluorfen 720 g ai/ha (4×),0 plant
same,The grade of pesticide damage/plant: grade 3,[6]; oxyfluorfen 720 g ai/ha (4×),0 plant
same,tolerance to oxyfluorfen,[6]; oxyfluorfen at four-fold field concentration (720 g ai/ha),high-resistant tolerance
same,tolerance to oxyfluorfen,[6]; oxyfluorfen at two-fold field concentration (360 g ai/ha),high-resistant tolerance
same,The grade of pesticide damage/plant: grade 0,[7]; flumioxazin 120 g ai/ha (2×),16 plant
same,The grade of pesticide damage/plant: grade 1,[7]; flumioxazin 120 g ai/ha (2×),0 plant
same,The grade of pesticide damage/plant: grade 2,[7]; flumioxazin 120 g ai/ha (2×),0 plant
same,The grade of pesticide damage/plant: grade 3,[7]; flumioxazin 120 g ai/ha (2×),0 plant
same,The grade of pesticide damage/plant: grade 0,[7]; flumioxazin 240 g ai/ha (4×),16 plant
same,The grade of pesticide damage/plant: grade 1,[7]; flumioxazin 240 g ai/ha (4×),0 plant
same,The grade of pesticide damage/plant: grade 2,[7]; flumioxazin 240 g ai/ha (4×),0 plant
same,The grade of pesticide damage/plant: grade 3,[7]; flumioxazin 240 g ai/ha (4×),0 plant
same,tolerance to flumioxazin,"[7]; soybean, flumioxazin at different concentrations (120 and 240 g ai/ha)",high-resistant tolerance

# Reference: patent publication US20240200091A1, “USE OF PROTOPORPHYRINOGEN OXIDASE” (BEIJING DABEINONG BIOTECHNOLOGY CO., LTD., priority 2021, published 2024)
